Broadly, the Km is the concentration of substrate that gives half-maximal velocity.

This note sets out measurements from paper PMC5712780, “Ymr210wp leads to the accumulation of phospholipids and steryl esters in yeast” (Bioinformation, 2017).

What all share (experiment): p-nitrophenyl ester hydrolysis assay, Michaelis-Menten fit
Assay type in all cases: biochemical, Saccharomyces cerevisiae

Substrate in series [1]: CCCCCCCCCCCCCCCC(=O)Oc1ccc([N+](=O)[O-])cc1
The following applies: optimum pH 8.5 and 45°C (kinetic conditions not stated); pH 8.5; 45.0 °C. The source says: (§1) p-nitrophenyl ester hydrolysis assay, Michaelis-Menten fit on Ymr210wp

Substrate in series [2]: CC(=O)Oc1ccc([N+](=O)[O-])cc1
The following applies: optimum pH 7.5 and 30°C (kinetic conditions not stated); text b29 prints error ±2.95; pH 7.5; 30.0 °C.
Source text: as §1

Substrate in series [3]: CCCC(=O)Oc1ccc([N+](=O)[O-])cc1
The note with it: optimum pH 7.5 and 30°C (kinetic conditions not stated); pH 7.5; 30.0 °C.
Source text: as §1

B1: Ymr210wp (Saccharomyces cerevisiae S288C) (protein)
chain: MRLKELLPNFLIVHQEVPEDPIAFKSTDKRENENKEITIPELIDTKVPELADGATDTLYGLLVNGHLQTAYGSFRHFDNIYKVQYKRMIIKYPHGGEGTVDFAVNGRSTKRRKVEKEYVPTSQPVFNGNLKRRYSYYSPDDPKLNSDDAKPMLIILHGLTGGSRESYVRAIVHEITTKYDFEACVFNARGCCYSAITTPLLYNGGWTNDIRYCVNDLRKRFPNRKFYMMGFSLGASIMTNYLGEESDRTKIECAISVSNPFDLYNSAYFINSTPMGSRFYSPALGHNLLRMVRNHLSTLEENPDFKDVIEKHLKKIRTVRQFDNLLTGPMFGYKNAEEYYKNASSYKRIPGIRTPFIALHAQDDPIVGGDLPIDQIKSNPYTLLLETSTGGHVGWFKDRSGRRWYAEPLCRFLKIFHDEITVKGLKPDLENVQLPDPNCEPIATTFRAN
notes: YMR210w cloned in pYES2/CT, His-tagged, expressed in S. cerevisiae BY4741, Ni-NTA purified
As for B1, the Km was 13.19 ± 1.03 mM in series [1], 11.51 ± 1.09 mM in series [2] and 7.28 ± 1.61 mM in series [3].
